In US4770993A, “Hybridoma tumor cell lines and their monoclonal antibodies to thaumatin” (Beatrice Companies, Inc., priority 1985, dated 1988):
Substitutions are numbered along the chain they refer to.

B1: Thaumatin I: plant thaumatin I (obtained from Sigma Chemical Co.), sweet-tasting protein of Thaumatococcus daniellii, purified on an ion exchange column (protein, UniProt P02883 23-229, looked up)
Thaumatin I: ATFEIVNRCSYTVWAAASKGDAALDAGGRQLNSGESWTINVEPGTNGGKIWARTDCYFDDSGSGICKTGDCGGLLRCKRFGRPPTTLAEFSLNQYGKDYIDISNIKGFNVPMDFSPTTRGCRGVRCAADIVGQCPAKLKAPGGGCNDACTVFQTSEYCCTTGKCGPTEYSRFFKRLCPDAFSYVLDKPTTVTCPGSSNYRVTFCPTA
B2: Performic acid oxidized thaumatin: denatured thaumatin I prepared by incubation of thaumatin I in a chilled performic acid solution (protein, UniProt P02883 23-229, looked up)
Thaumatin I: B1 Thaumatin I
modifications: performic acid oxidized
notes: denatured thaumatin I prepared by incubation of thaumatin I in a chilled performic acid solution
B3: Thaumatin II: plant thaumatin II, sweet-tasting protein of Thaumatococcus daniellii (protein, UniProt P02884 23-229, looked up)
Thaumatin II: B1 Thaumatin I with N46K, S63R, K67R, R76Q

Columns and labels:
[1] = system: monoclonal antibody of clone No. 29; test: Competition assay between native plant thaumatin I and monellin, clone No. 29 antibody; assay type: binding, mouse
[2] = system: clone No. 29 monoclonal antibodies; test: Competition ELISA, inhibition of binding of clone No. 29 monoclonal antibodies to native plant thaumatin I; design: species or system mouse
Experimental: (§1) The following procedure is utilized to carry out enzyme linked immunosorbance assays (ELISA) for thaumatin. All reactions are carried out at room temperature and the ELISA plate is covered with Saran brand plastic wrap at all stages and is incubated within a humidified chamber. ELISA plates are coated by placing 10 ng of thaumatin I purified according to the procedure of example 1 in 50 μl of 25 mM NaHCO3 (pH 9.2). This is incubated at room temperature for 2 hours. The plates are washed twice with 400 μl of PBS (50 mM potassium phosphate, 150 mM NaCl, (pH 7.4) and Tween 20 (0.05%)) (a detergent manufactured by Sigma Chemical Co.) and then twice with 400 μl water. The plates are then coated with 200 μl of 1% bovine serum albumin (BSA) in PBS-Tween 20 (0.025% solution) for 2 hours at room temperature. The plates are again washed twice with 400 μl of the PBS-Tween solution and twice with water.
Fifty μl of media from the culture to be tested is then added. Normal, unfused myeloma cell (Sp2-0/Ag-14) media is used as the negative control. […] The media is then incubated for at least four hours at room temperature. The plates are then again washed twice with 400 μl of PBS-Tween 20 solution and then twice with water. Fifty μl of a 1:100 dilution of rabbit anti-mouse light K and λ chain immunoglobulin is added and this is incubated for 2 hours at room temperature. The plates are again washed twice with 400 μl of 0.5% PBS-Tween 20 solution and twice with water. Fifty μl of conjugated goat anti-rabbit IgG peroxidase at a 1:1000 dilution is then added and incubated for 1 hour at room temperature. The plates are once more washed twice with 400 μl PBS-Tween 20 solution and twice with water.
(§2) Fifty μl of O-phenylenediamine dihydrochloride (OPD) solution containing 0.01% of H2 O2 is added to each well (OPD solution comprises 18 mg of OPD per 30 ml of staining buffer which itself comprises 4.86 ml of 0.5 M citric acid and 10.28 ml of 0.5 M Na2 HPO4 diluted up to 100 ml with water). The H2 O2 should be added to the OPD only seconds before application. This mixture is then incubated for 5-15 minutes at room temperature until the reaction is stopped by addition of 50 μl of 4N H2 SO4. The optical density of the wells is then measured at 490 nm by a Bio-Tek ELISA reader.
(§3) In this example inhibition effect of recombinant yeast produced thaumatin analogue-glutathione adduct and of performic acid oxidized thaumatin on binding of clone No. 29 monoclonal antibodies to native plant thaumatin I was evaluated. ELISA plates were coated with 10 ng of native plant thaumatin I per well. The antibodies were preincubated with control buffer or with various amounts of test materials for 2 hours and were added to the plates. The plates were then developed according to the ELISA procedure of Example 3.

[3] = cited from earlier work; for taste responses: in words
[4] = system: clone No. 3 monoclonal antibodies; test: Competition ELISA, inhibition of binding of clone No. 3 monoclonal antibodies to native plant thaumatin I; design: species or system mouse
Experimental: as §1
Fifty μl of media from the culture to be tested is then added. Normal, unfused myeloma cell (Sp2-0/Ag-14) media is used as the negative control. Mouse serum at a dilution of 1:500 or greater is used as a positive control. The media is then incubated for at least four hours at room temperature. The plates are then again washed twice with 400 μl of PBS-Tween 20 solution and then twice with water. Fifty μl of a 1:100 dilution of rabbit anti-mouse light K and λ chain immunoglobulin is added and this is incubated for 2 hours at room temperature. The plates are again washed twice with 400 μl of 0.5% PBS-Tween 20 solution and twice with water. Fifty μl of conjugated goat anti-rabbit IgG peroxidase at a 1:1000 dilution is then added and incubated for 1 hour at room temperature. The plates are once more washed twice with 400 μl PBS-Tween 20 solution and twice with water.
as §2
as §3, with “example, the” for “example”, “oxidized plant” for “oxidized”, “3” for “29”

[5] = in words; cited from earlier work

Row | Molecule | Inhibition (%) ([1]; amount of protein 10 ng) | Inhibition (%) ([1]; amount of protein 50 ng) | Inhibition (%) ([1]; amount of protein 100 ng) | Inhibition (%) ([1]; amount of protein 1 μg) | Inhibition (%) ([1]; amount of protein 10 μg) | Inhibition (%) ([1]; amount of protein 100 μg) | Inhibition of Binding (%) ([2]; addition 100 ng) | Inhibition of Binding (%) ([2]; addition 200 ng) | Inhibition of Binding (%) ([2]; addition 500 ng) | Inhibition of Binding (%) ([2]; addition 1 μg) | Inhibition of Binding (%) ([2]; addition 2 μg) | taste responses [3] | Inhibition of Binding (%) ([4]; addition 100 ng) | Inhibition of Binding (%) ([4]; addition 200 ng) | Inhibition of Binding (%) ([4]; addition 500 ng) | Inhibition of Binding (%) ([4]; addition 1 μg) | Inhibition of Binding (%) ([4]; addition 2 μg) | cariogenicity [5] | toxicity [5] | also measured
1 | Monellin | not detectable | not detectable | not detectable | 15% | 60% | 98% |  |  |  |  |  |  |  |  |  |  |  |  |  | concentration inhibiting binding relative to thaumatin ([1]; monellin versus thaumatin): ten fold greater
2 | B1 | not detectable | not detectable | 25% | 62.5% | 94% | 95% | 5% | 30% | 51% | 65% | 80% | elicit profound taste responses | 16% | 30% | 50% | 60% | 80% | non-cariogenic | non-toxic | sweetness relative to sucrose ([3]; on a weight basis): about 5000 times sweeter than sucrose
3 | B2 |  |  |  |  |  |  | 8% | 29.5% | 49% | 64% | 82% |  | 0% | 0% | 0% | 0% | 6% |  |  | competition with native plant thaumatin I for clone No. 29 antibody ([2]; in words): compete effectively; inhibition in the assay ([4]; preincubation with clone No. 3 antibody, in words): little or no inhibition
4 | B3 |  |  |  |  |  |  |  |  |  |  |  | elicit profound taste responses |  |  |  |  |  | non-cariogenic | non-toxic | 
